Patent US20240342207, “MODIFIED NUCLEIC ACID COMPOSITIONS AND ASSOCIATED METHODS FOR TREATMENT OF PHENYLKETONURIA” (BOARD OF REGENTS, THE UNIVERSITY OF TEXAS SYSTEM, published 2024)
Residue numbers refer to the chain shown, from its start.

Assays:
Assay in all cases: EMSA; one of 13 of 17 binding mutants; affinity not decreased
Conditions in all cases: tags: His-tag, E. coli; stem-loop
PAH A300S = target: T1, PAH A300S (Homo sapiens, UniProt P00439 P00439:1-452, A300S)
T1 sequence: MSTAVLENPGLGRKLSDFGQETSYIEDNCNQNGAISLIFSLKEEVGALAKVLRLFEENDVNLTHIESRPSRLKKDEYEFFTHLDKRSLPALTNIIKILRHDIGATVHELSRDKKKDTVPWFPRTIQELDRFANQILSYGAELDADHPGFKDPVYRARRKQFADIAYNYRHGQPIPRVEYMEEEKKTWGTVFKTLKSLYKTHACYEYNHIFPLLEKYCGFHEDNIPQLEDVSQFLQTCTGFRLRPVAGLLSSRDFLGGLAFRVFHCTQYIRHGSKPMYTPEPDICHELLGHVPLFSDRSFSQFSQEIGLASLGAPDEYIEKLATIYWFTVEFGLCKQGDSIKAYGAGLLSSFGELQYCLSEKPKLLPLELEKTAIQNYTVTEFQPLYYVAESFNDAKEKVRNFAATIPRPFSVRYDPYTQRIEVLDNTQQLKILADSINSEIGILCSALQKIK

PAH F55L = target: T2, PAH F55L (Homo sapiens, UniProt P00439 P00439:1-452, F55L)
T2 sequence: T1 sequence with F55L, S300A

PAH P281L = target: T3, PAH P281L (Homo sapiens, UniProt P00439 P00439:1-452, P281L)
T3 sequence: T1 sequence with P281L, S300A

PAH A47V = target: T4, PAH A47V (Homo sapiens, UniProt P00439 P00439:1-452, A47V)
T4 sequence: T1 sequence with A47V, S300A

Measured: binding result

CAAAAUGCAUAUGUAUCUUUG (ssRNA) [HULC 181-201 mimic]
binds: all assays above
